{"source": "patent US20100216667A1", "about": "“METHOD FOR DETERMINING COMPATIBILITY OF AN ACTIVE PHARMACEUTICAL INGREDIENT WITH MATERIALS” (priority 2008, published 2010)", "origin": "cited, not measured here", "conditions": "pre-filled syringes with uncoated stoppers and Polysorbate-80", "data": [{"substance": "EPREX: marketed product whose active ingredient is erythropoietin", "values": [{"measurement": "Pure red cell aplasia (PRCA) in treated patients", "value": "increase in pure red cell aplasia (PRCA)"}]}]}
